Laboratory results from paper PMC3324550, “Antibiotic Resistance Is Prevalent in an Isolated Cave Microbiome” (PLoS ONE, 2012).

What was measured:
[1] = tested on: T1, MPH (2′)-II from B. paraconglomeratum (mphE); test: pyruvate kinase/lactate dehydrogenase coupled assay, NADH absorbance at […] nm; assay type: biochemical, Brachybacterium paraconglomeratum
T1 construct: codon-optimised synthetic gene in pET28b (NdeI/HindIII), E. coli BL21(DE3); IMAC and gel filtration

[2] = biological target: T1, MPH (2′)-II from B. paraconglomeratum (mphE); test: as above; assay type: biochemical, Brachybacterium paraconglomeratum; details: substrate inhibition constant (substrate-inhibition fit); GTP 200 µM
[3] = tested on: CC[C@H]1OC(=O)[C@H](C)[C@@H](O[C@H]2C[C@@](C)(OC)[C@@H](O)[C@H](C)O2)[C@H](C)[C@@H](O[C@@H]2O[C@H](C)C[C@H](N(C)C)[C@H]2O)[C@](C)(O)C[C@@H](C)CN(C)[C@H](C)[C@@H](O)[C@]1(C)O; test: purified protein; assay type: biochemical, Brachybacterium faecium; details: GTP 200 µM
[4] = tested on: CC[C@H]1OC(=O)[C@H](C)[C@@H](O[C@H]2C[C@@](C)(OC)[C@@H](O)[C@H](C)O2)[C@H](C)[C@@H](O[C@@H]2O[C@H](C)C[C@H](N(C)C)[C@H]2O)[C@](C)(OC)C[C@@H](C)C(=O)[C@H](C)[C@@H](O)[C@]1(C)O; test: purified protein; assay type: biochemical, Brachybacterium faecium; details: GTP 200 µM
[5] = tested on: CC[C@H]1OC(=O)[C@H](C)C(=O)[C@H](C)[C@@H](O[C@@H]2O[C@H](C)C[C@H](N(C)C)[C@H]2O)[C@](C)(OC)C[C@@H](C)C(=O)[C@H](C)[C@H]2N(CCCCn3cnc(-c4cccnc4)c3)C(=O)O[C@]12C; test: purified protein; assay type: biochemical, Brachybacterium faecium; details: GTP 200 µM
[6] = tested on: CC[C@H]1OC(=O)[C@H](C)[C@@H](O[C@H]2C[C@@](C)(OC)[C@@H](O)[C@H](C)O2)[C@H](C)[C@@H](O[C@@H]2O[C@H](C)C[C@H](N(C)C)[C@H]2O)[C@](C)(O)C[C@@H](C)/C(=N\OCOCCOC)[C@H](C)[C@@H](O)[C@]1(C)O; test: purified protein; assay type: biochemical, Brachybacterium faecium; details: GTP 200 µM
[7] = tested on: Nc1nc2c(ncn2[C@@H]2O[C@H](COP(=O)(O)OP(=O)(O)OP(=O)(O)O)[C@@H](O)[C@H]2O)c(=O)[nH]1; test: purified protein; assay type: biochemical, Brachybacterium faecium; details: erythromycin 400 µM (table note; methods say 200 µM macrolide)
[8] = tested on: CC[C@H]1OC(=O)[C@H](C)[C@@H](O[C@H]2C[C@@](C)(OC)[C@@H](O)[C@H](C)O2)[C@H](C)[C@@H](O[C@@H]2O[C@H](C)C[C@H](N(C)C)[C@H]2O)[C@](C)(O)C[C@@H](C)C(=O)[C@H](C)[C@@H](O)[C@]1(C)O; test: purified protein; assay type: biochemical, Brachybacterium faecium; details: GTP 200 µM

CC[C@H]1OC(=O)[C@H](C)[C@@H](O[C@H]2C[C@@](C)(OC)[C@@H](O)[C@H](C)O2)[C@H](C)[C@@H](O[C@@H]2O[C@H](C)C[C@H](N(C)C)[C@H]2O)[C@](C)(O)C[C@@H](C)/C(=N\OCOCCOC)[C@H](C)[C@@H](O)[C@]1(C)O [Roxithromycin]
Km ([1]; GTP 200 µM): 59 ± 10.9 µM

CC[C@H]1OC(=O)[C@H](C)C(=O)[C@H](C)[C@@H](O[C@@H]2O[C@H](C)C[C@H](N(C)C)[C@H]2O)[C@](C)(OC)C[C@@H](C)C(=O)[C@H](C)[C@H]2N(CCCCn3cnc(-c4cccnc4)c3)C(=O)O[C@]12C [Telithromycin]
Ki [2]: 600 ± 285 µM | Km ([1]; GTP 200 µM, substrate-inhibition fit): 12.2 ± 5 µM

MPH (2′)-II from B. faecium DSM 4810 (Brachybacterium faecium DSM 4810)
Km [3]: 60.6 ± 8.86 µM | kcat [3]: 0.312 s⁻¹ | kcat/Km [3]: 5180 M⁻¹ s⁻¹ | Km [4]: 42.0 ± 6.26 µM | kcat [4]: 0.286 s⁻¹ | kcat/Km [4]: 6810 M⁻¹ s⁻¹ | Km [5]: 23.9 ± 4.22 µM | kcat [5]: 0.168 s⁻¹ | kcat/Km [5]: 7050 M⁻¹ s⁻¹ | Km [6]: 19.3 ± 2.60 µM | kcat [6]: 0.262 s⁻¹ | kcat/Km [6]: 13600 M⁻¹ s⁻¹ | Km [7]: 16.0 ± 1.3 µM | kcat [7]: 0.203 s⁻¹ | kcat/Km [7]: 12700 M⁻¹ s⁻¹ | Km [8]: 38.2 ± 6.24 µM | kcat [8]: 0.192 s⁻¹ | kcat/Km [8]: 5030 M⁻¹ s⁻¹

Nc1nc2c(ncn2[C@@H]2O[C@H](COP(=O)(O)OP(=O)(O)OP(=O)(O)O)[C@@H](O)[C@H]2O)c(=O)[nH]1 [GTP]
Km ([1]; erythromycin 400 µM (table note; methods say 200 µM macrolide)): 10.2 ± 0.53 µM

CC[C@H]1OC(=O)[C@H](C)[C@@H](O[C@H]2C[C@@](C)(OC)[C@@H](O)[C@H](C)O2)[C@H](C)[C@@H](O[C@@H]2O[C@H](C)C[C@H](N(C)C)[C@H]2O)[C@](C)(OC)C[C@@H](C)C(=O)[C@H](C)[C@@H](O)[C@]1(C)O [Clarithromycin]
Km ([1]; GTP 200 µM): 21.9 ± 5.45 µM

CC[C@H]1OC(=O)[C@H](C)[C@@H](O[C@H]2C[C@@](C)(OC)[C@@H](O)[C@H](C)O2)[C@H](C)[C@@H](O[C@@H]2O[C@H](C)C[C@H](N(C)C)[C@H]2O)[C@](C)(O)C[C@@H](C)C(=O)[C@H](C)[C@@H](O)[C@]1(C)O [Erythromycin]
Km ([1]; GTP 200 µM): 43.8 ± 11.3 µM

CC[C@H]1OC(=O)[C@H](C)[C@@H](O[C@H]2C[C@@](C)(OC)[C@@H](O)[C@H](C)O2)[C@H](C)[C@@H](O[C@@H]2O[C@H](C)C[C@H](N(C)C)[C@H]2O)[C@](C)(O)C[C@@H](C)CN(C)[C@H](C)[C@@H](O)[C@]1(C)O [Azithromycin]
Km ([1]; GTP 200 µM): 54 ± 7.59 µM
